Experimental data as given in patent publication US20110118131A1 (published 2011).

T1: Ep-CAM (UniProt P16422 24-265, limits assumed)
T1 construct: Amine coupled to a CM5 chip in the Biacore assays
T1 sequence (looked up): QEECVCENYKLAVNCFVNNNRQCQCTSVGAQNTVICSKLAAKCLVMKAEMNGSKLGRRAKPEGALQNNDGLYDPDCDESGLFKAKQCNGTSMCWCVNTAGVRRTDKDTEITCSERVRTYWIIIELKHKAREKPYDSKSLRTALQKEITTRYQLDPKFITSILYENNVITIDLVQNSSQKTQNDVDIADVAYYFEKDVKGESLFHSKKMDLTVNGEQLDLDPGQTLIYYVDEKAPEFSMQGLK

B1: ING-1 light chain R101E (Fab, V domains shown)
VH: QIQLVQSGPELKKPGETVKISCKASGYTFTKYGMNWVKQAPGKGLKWMGWINTYTEEPTYGDDFKGRFAFSLETSASTANLQINNLKSEDTATYFCARFGSAVDYWGQGTSVTVSS
VL: DIVMTQAAFSNPVTLGTSGSISCRSSKSLLHSNGITYLYWYLQKPGQSPQLLIYQMSNLASGVPDRFSSSGSGTDFTLRISRVEAEDVGVYYCAQNLELPETFGGGTKLEMKR
notes: Fab, periplasmic extract
B2: ING-1 light chain R101K (Fab, V domains shown)
VH: QIQLVQSGPELKKPGETVKISCKASGYTFTKYGMNWVKQAPGKGLKWMGWINTYTEEPTYGDDFKGRFAFSLETSASTANLQINNLKSEDTATYFCARFGSAVDYWGQGTSVTVSS
VL: DIVMTQAAFSNPVTLGTSGSISCRSSKSLLHSNGITYLYWYLQKPGQSPQLLIYQMSNLASGVPDRFSSSGSGTDFTLRISRVEAEDVGVYYCAQNLELPKTFGGGTKLEMKR
notes: Fab, periplasmic extract
B3: ING-1 light chain R101Q (Fab, V domains shown)
VH: QIQLVQSGPELKKPGETVKISCKASGYTFTKYGMNWVKQAPGKGLKWMGWINTYTEEPTYGDDFKGRFAFSLETSASTANLQINNLKSEDTATYFCARFGSAVDYWGQGTSVTVSS
VL: DIVMTQAAFSNPVTLGTSGSISCRSSKSLLHSNGITYLYWYLQKPGQSPQLLIYQMSNLASGVPDRFSSSGSGTDFTLRISRVEAEDVGVYYCAQNLELPQTFGGGTKLEMKR
notes: Fab, periplasmic extract
B4: ING-1 light chain R101W (Fab, V domains shown)
VH: QIQLVQSGPELKKPGETVKISCKASGYTFTKYGMNWVKQAPGKGLKWMGWINTYTEEPTYGDDFKGRFAFSLETSASTANLQINNLKSEDTATYFCARFGSAVDYWGQGTSVTVSS
VL: DIVMTQAAFSNPVTLGTSGSISCRSSKSLLHSNGITYLYWYLQKPGQSPQLLIYQMSNLASGVPDRFSSSGSGTDFTLRISRVEAEDVGVYYCAQNLELPWTFGGGTKLEMKR
notes: Fab, periplasmic extract
B5: ING-1 light chain R101S (Fab, V domains shown)
VH: QIQLVQSGPELKKPGETVKISCKASGYTFTKYGMNWVKQAPGKGLKWMGWINTYTEEPTYGDDFKGRFAFSLETSASTANLQINNLKSEDTATYFCARFGSAVDYWGQGTSVTVSS
VL: DIVMTQAAFSNPVTLGTSGSISCRSSKSLLHSNGITYLYWYLQKPGQSPQLLIYQMSNLASGVPDRFSSSGSGTDFTLRISRVEAEDVGVYYCAQNLELPSTFGGGTKLEMKR
notes: Fab, periplasmic extract
B6: ING-1 light chain R101H (Fab, V domains shown)
VH: QIQLVQSGPELKKPGETVKISCKASGYTFTKYGMNWVKQAPGKGLKWMGWINTYTEEPTYGDDFKGRFAFSLETSASTANLQINNLKSEDTATYFCARFGSAVDYWGQGTSVTVSS
VL: DIVMTQAAFSNPVTLGTSGSISCRSSKSLLHSNGITYLYWYLQKPGQSPQLLIYQMSNLASGVPDRFSSSGSGTDFTLRISRVEAEDVGVYYCAQNLELPHTFGGGTKLEMKR
notes: Fab, periplasmic extract
B7: ING-1 light chain R101N (Fab, V domains shown)
VH: QIQLVQSGPELKKPGETVKISCKASGYTFTKYGMNWVKQAPGKGLKWMGWINTYTEEPTYGDDFKGRFAFSLETSASTANLQINNLKSEDTATYFCARFGSAVDYWGQGTSVTVSS
VL: DIVMTQAAFSNPVTLGTSGSISCRSSKSLLHSNGITYLYWYLQKPGQSPQLLIYQMSNLASGVPDRFSSSGSGTDFTLRISRVEAEDVGVYYCAQNLELPNTFGGGTKLEMKR
notes: Fab, periplasmic extract
B8: ING-1 light chain R101F (Fab, V domains shown)
VH: QIQLVQSGPELKKPGETVKISCKASGYTFTKYGMNWVKQAPGKGLKWMGWINTYTEEPTYGDDFKGRFAFSLETSASTANLQINNLKSEDTATYFCARFGSAVDYWGQGTSVTVSS
VL: DIVMTQAAFSNPVTLGTSGSISCRSSKSLLHSNGITYLYWYLQKPGQSPQLLIYQMSNLASGVPDRFSSSGSGTDFTLRISRVEAEDVGVYYCAQNLELPFTFGGGTKLEMKR
notes: Fab, periplasmic extract

What follows are binders tested against T1, Ep-CAM (assay: Biacore, Fab periplasmic extract).
B1: no binding.
With B2 the “fold difference in affinity vs parental ING-1” value was 0.04 fold.
B3: no binding.
B4: no binding.
B5: no binding.
B6: no binding.
B7: no binding.
B8: no binding.
